Measured values published in article doi:10.1101/2023.09.28.559889 (bioRxiv, 2023).

B1: NatT toxin (PA1030), His-tagged, co-expressed with NatR in E. coli (enzyme)
chain: SEIWRQCKGERHIRPLQGRLVRLVESQEQVATLQLVDTLEEQALLEELLESSKPPVPADAEPLHYLLKTPFRYPPLRWGSRFGRRHEPSLFYAALKLETAMAESAYYRCVLWSGMVVPPPSGRILSEHASFEAGWKVERGIRLQAPPFSDHEAALTDIADYRAPQELGSAMRSAGVQAFEYRSARCPERGCNVALFTPAAFTEKRPRNLTPWLCETTAGYVAFKPAHVPGSPKIFSWELFLVDGKLPHPA

What was measured:
[1] = target: NatT toxin (PA1030), His-tagged, co-expressed with NatR in E. coli (P. aeruginosa) (UniProt Q9I4U4); experiment: mass photometry
[2] = target: NatR antitoxin (PA1029), co-expressed with His-tagged NatT in E. coli (P. aeruginosa); experiment: crystal structure
crystal structure = target: the molecule itself; experiment: crystal structure

Row | Molecule | stoichiometry N [1] | stoichiometry N [2] | stoichiometry N (crystal structure)
1 | NatR antitoxin (PA1029), co-expressed with His-tagged NatT in E. coli (natural protein) | 2 | 2 | 
2 | B1 |  |  | 2
